Measurements: PMC4264689, “Oligomerization, Conformational Stability and Thermal Unfolding of Harpin, HrpZPss and Its Hypersensitive Response-Inducing C-Terminal Fragment, C-214-HrpZPss” (PLoS ONE, 2014)

Molecular target: the molecule itself
Test: native gel or EMSA; native PAGE of the purified proteins in solution; multiple bands / broad smear taken as polydisperse oligomers; gel conditions not given

B1: C-214-HrpZPss (C-terminal fragment of HrpZPss with 214 amino acids) (domain or fragment)
chain: LTKQDGGTSFSEDDMPMLNKIAQFMDDNPAQFPKPDSGSWVNELKEDNFLDGDETAAFRSALDIIGQQLGNQQSDAGSLAGTGGGLGTPSSFSNNSSVMGDPLIDANTGPGDSGNTRGEAGQLIGELIDRGLQSVLAGGGLGTPVNTPQTGTSANGGQSAQDLDQLLGGLLLKGLEATLKDAGQTGTDVQSSAAQIATLLVSTLLQGTRNQAAA
notes: Harpin HrpZ of Pseudomonas syringae pv. syringae, C-terminal 214 residues (N-terminal 127 amino acids deleted); Cloned under the NdeI and EcoRI sites of pET 28a, which probably adds an N-terminal His6 tag with a thrombin site; Forms polydisperse oligomers; the number of copies is not defined; also called C-terminal 214 residues of HrpZPss; source: E. coli BL21 (DE3), pET 28a, purified (Ni-NTA, …)
  binding result: binds

B2: HrpZPss (harpin HrpZ from Pseudomonas syringae pv. syringae), full length (natural protein)
chain: MQSLSLNSSSLQTPAMALVLVRPEAETTGSTSSKALQEVVVKLAEELMRNGQLDDSSPLGKLLAKSMAADGKAGGGIEDVIAALDKLIHEKLGDNFGASADSASGTGQQDLMTQVLNGLAKSMLDDLLTKQDGGTSFSEDDMPMLNKIAQFMDDNPAQFPKPDSGSWVNELKEDNFLDGDETAAFRSALDIIGQQLGNQQSDAGSLAGTGGGLGTPSSFSNNSSVMGDPLIDANTGPGDSGNTRGEAGQLIGELIDRGLQSVLAGGGLGTPVNTPQTGTSANGGQSAQDLDQLLGGLLLKGLEATLKDAGQTGTDVQSSAAQIATLLVSTLLQGTRNQAAA
notes: Harpin HrpZ of Pseudomonas syringae pv. syringae, 34.7 kDa, 341 amino acids, full length; Forms polydisperse oligomers; the number of copies is not defined; also called full length HrpZPss; native HrpZPss; source: expressed and purified as described earlier [15]
  binding result: binds
